# Reference: patent publication US11648295B2, “Methods of treating diseases resulting from a maladapted stress response” (Cortene Inc., priority 2016, dated 2023)
# No end group written: not given here.
# Tests used:
# CRFR2 [1] = molecular target: T1, CRFR2 (Homo sapiens, UniProt Q13324); assay: EC50, nmol (% of Emax) | CRFR2
# T1 sequence (Q13324 whole entry, looked up): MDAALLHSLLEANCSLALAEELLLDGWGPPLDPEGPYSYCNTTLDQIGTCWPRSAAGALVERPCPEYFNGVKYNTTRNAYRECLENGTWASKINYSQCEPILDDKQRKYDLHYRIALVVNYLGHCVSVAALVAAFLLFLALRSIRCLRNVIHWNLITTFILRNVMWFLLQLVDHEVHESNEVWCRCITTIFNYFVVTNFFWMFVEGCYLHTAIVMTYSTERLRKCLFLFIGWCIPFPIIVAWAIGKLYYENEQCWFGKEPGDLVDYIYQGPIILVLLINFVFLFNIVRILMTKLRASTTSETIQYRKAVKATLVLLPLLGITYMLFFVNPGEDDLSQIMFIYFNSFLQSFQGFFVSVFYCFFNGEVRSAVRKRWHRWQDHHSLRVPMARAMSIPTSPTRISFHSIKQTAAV
# Source text: (§1) Table printed on a drawing sheet, FIGURE 10
# (§2) Title: Pharmacokinetic Parameters
# Head of the field: EC50, nmol (% of Emax) | CRFR2
# (§3) Footnotes: FIGURE 10: Effect of maximum or steady state plasma concentrations (Cmax or Css) of various CRFR2 agonists (CT38, SCP or Ucn2), dosed by subcutaneous bolus (triangles) or intravenous infusion (circles), on the maximum heart rate (HRmax) in healthy subjects (solid lines) or stable congestive heart failure patients (dashed lines). The table provides comparative pharmacokinetic parameters for the CRFR2 agonists.
# (§4) That is, for strongly potent CRFR2 agonists and relative intermediate plasma concentrations, the loss of the ability to induce a heart rate increase via continuous dosing, was driven by the duration of dosing, and appeared to occur with different selective CRFR2 agonists (e.g., Ucn2, stresscopin), irrespective of the condition of the human subject.
# (§5) First copying reader's note: Each EC50 cell holds the EC50 in nmol with the % of Emax in brackets after it.
# Where the first naming reader finds the target: head: EC50, nmol (% of Emax) | CRFR2
# CRFR1 [2] = molecular target: CRFR1 (Homo sapiens, UniProt P34998); assay: EC50, nmol (% of Emax) | CRFR1
# Source text: as §1, §2
# Head of the field: EC50, nmol (% of Emax) | CRFR1
# as §3, §4, §5
# Where the first naming reader finds the target: head: EC50, nmol (% of Emax) | CRFR1
# CRFR1 [3] = molecular target: T2, CRFR1 (Homo sapiens, UniProt P34998); assay: in vitro binding potential for CRFR1 (table of FIG. 10); type: biochemical
# T2 sequence (P34998 24-415): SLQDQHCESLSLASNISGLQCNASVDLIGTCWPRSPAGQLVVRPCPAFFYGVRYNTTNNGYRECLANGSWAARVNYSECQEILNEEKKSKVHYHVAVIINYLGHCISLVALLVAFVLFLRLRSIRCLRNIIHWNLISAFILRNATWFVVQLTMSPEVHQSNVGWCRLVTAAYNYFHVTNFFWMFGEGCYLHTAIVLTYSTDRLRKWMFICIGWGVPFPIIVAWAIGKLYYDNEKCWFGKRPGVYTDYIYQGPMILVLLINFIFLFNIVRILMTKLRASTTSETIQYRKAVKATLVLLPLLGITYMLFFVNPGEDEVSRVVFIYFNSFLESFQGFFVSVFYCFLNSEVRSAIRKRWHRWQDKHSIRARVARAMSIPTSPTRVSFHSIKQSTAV
# CRFR2 [4] = molecular target: T1, CRFR2; assay: in vitro potency / binding potential for CRFR2 (table of FIG. 10); type: biochemical
# [5] = test system: stable congestive heart failure patients; conditions: escalating i.v. infusion over 3 hours; cited from earlier work
substance,measurement,setting,value
"Ucn3: endogenous CRFR2-selective agonist peptide, used as a proxy for SCP (FTLSLDVPTNIMNLLFNIAKAKNLRAQAAANAHLMAQI) [listing 1 of 2 here]","EC50, nmol (% of Emax) | CRFR2",CRFR2 [1],> 100 (60) nmol (% of Emax)
same,"EC50, nmol (% of Emax) | CRFR1",CRFR1 [2],> 1000 (10) nmol (% of Emax)
"Ucn3: endogenous CRFR2-selective agonist peptide, used as a proxy for SCP (FTLSLDVPTNIMNLLFNIAKAKNLRAQAAANAHLMAQI) [listing 2 of 2 here]",in vitro binding potential for CRFR1,CRFR1 [3],"weak binding potential for CRFR1 (minimal, at moderate concentrations)"
same,in vitro binding potential for CRFR2,CRFR2 [4],"strong binding potential for CRFR2 (maximal, at low concentrations)"
"stresscopin (FTLSLDVPTNIMNLLFNIAKAKNLRAQAAANAHLMAQI; ends and bridges not checked; UniProt Q969E3 120-157, looked up)",pattern of effect on heart rate versus Ucn2,[5],very similar
